For 22 sequences, Kd and IC50 results are on record in the Immune Epitope Database (IEDB).

Bounds are passed on as bounds.

In one experiment the target is HLA-A*23:01. Description: IEDB peptide-MHC binding, purified MHC/competitive/radioactivity; filed as Kd, often an IC50 or EC50 that approximates it; ≥ and ≤ were set here for values at or beyond the usual limits of such assays.
In another experiment the target is HLA-A*24:02. Described as above.
For the next experiment, the target named is HLA-A*01:01. The experiment is described as above.
The next experiment concerns the target HLA-A*29:02. The description is as above.
The next experiment addresses HLA-A*30:02. The experiment is described as above.
The target of another experiment is HLA-A*26:01. The description is as above.
Another experiment addresses HLA-A*02:01. In words: IEDB peptide-MHC binding, purified MHC/competitive/fluorescence; ≥ and ≤ were set here for values at or beyond the usual limits of such assays.
The next experiment deals with HLA-A*68:01. In words: IEDB peptide-MHC binding, purified MHC/competitive/radioactivity; filed as Kd, often an IC50 or EC50 that approximates it; ≥ and ≤ were set here for values at or beyond the usual limits of such assays. The settings on record: source organism: Vaccinia virus WR.
A further experiment concerns the target HLA-A*31:01. Described as above. The settings on record: source organism: Vaccinia virus WR.
For the next experiment, the target named is HLA-A*33:01. The description is as above. The conditions noted are these: source organism: Vaccinia virus WR.
The next experiment deals with HLA-A*03:01. The description is as above. The conditions noted are these: source organism: Vaccinia virus WR.
In a further experiment the target is HLA-A*11:01. The description is as above. The settings on record: source organism: Vaccinia virus WR.
Setting [1] is: source organism: SARS coronavirus Tor2.
[2] abbreviates: source organism: Mammarenavirus brazilense.
Where [3] appears, read: source organism: Mammarenavirus whitewaterense.
[4] abbreviates: source organism: Triticum aestivum.
[5] abbreviates: source organism: Sudan ebolavirus.
[6] abbreviates: source organism: Zaire ebolavirus.
Setting [7] is: source organism: Mammarenavirus machupoense.

Usually Kd stands for a measure of binding affinity in units of concentration. On to LTKGTLEPEY, for which the Kd in the experiment with HLA-A*23:01 (setting [1]) was at least 70 µM; with HLA-A*24:02 (setting [1]), at least 70.3 µM; with HLA-A*01:01 (setting [1]), 3.2 µM; with HLA-A*29:02 (setting [1]) it was 2.05 µM; with HLA-A*30:02 (setting [1]), 0.536 µM; with HLA-A*26:01 (setting [1]) it was 1.99 µM.

As for AYVNQAHHI, the dissociation constant (Kd) with HLA-A*23:01 (setting [2]) was 0.0476 µM; with HLA-A*24:02 (setting [2]), 0.0662 µM; with HLA-A*29:02 (setting [2]), at least 73.3 µM.

For QYGSFCTQL, the equilibrium dissociation constant (Kd) is at least 75.4 µM with HLA-A*23:01 (setting [1]); at least 107 µM with HLA-A*24:02 (setting [1]); at least 78.1 µM with HLA-A*01:01 (setting [1]); at least 78.9 µM with HLA-A*29:02 (setting [1]); at least 93.8 µM with HLA-A*30:02 (setting [1]); at least 77.9 µM with HLA-A*26:01 (setting [1]).

For TKHPSLNII, the equilibrium dissociation constant (Kd) is at least 53.1 µM with HLA-A*23:01 (setting [3]); at least 52.1 µM with HLA-A*24:02 (setting [3]); at least 47.1 µM with HLA-A*01:01 (setting [3]); at least 78.9 µM with HLA-A*29:02 (setting [3]); at least 76.9 µM with HLA-A*30:02 (setting [3]); at least 77.9 µM in the experiment with HLA-A*26:01 (setting [3]).

Take LFWAVKPKI: the dissociation constant (Kd) came to 2.12 µM in the experiment with HLA-A*23:01 (setting [2]), 2.77 µM in the experiment with HLA-A*24:02 (setting [2]) and 9.35 µM in the experiment with HLA-A*29:02 (setting [2]).

Turning to EIEPKLDGYY, the Kd in the experiment with HLA-A*23:01 (setting [1]) is at least 70 µM; in the experiment with HLA-A*24:02 (setting [1]), at least 70.3 µM; with HLA-A*01:01 (setting [1]), 0.0551 µM; in the experiment with HLA-A*29:02 (setting [1]), 7.39 µM; in the experiment with HLA-A*30:02 (setting [1]), 0.534 µM; with HLA-A*26:01 (setting [1]), 0.163 µM.

On to ATEETFKLSY, for which the Kd in the experiment with HLA-A*23:01 (setting [1]) is at least 52.5 µM; in the experiment with HLA-A*24:02 (setting [1]) it was at least 70.3 µM; with HLA-A*01:01 (setting [1]), 0.0544 µM; in the experiment with HLA-A*29:02 (setting [1]), 0.224 µM; with HLA-A*30:02 (setting [1]), 0.387 µM; with HLA-A*26:01 (setting [1]), 11.7 µM.

With VVAIDYRHY, the Kd is at least 77.8 µM in the experiment with HLA-A*23:01 (setting [1]); at least 77.6 µM with HLA-A*24:02 (setting [1]); at least 52.6 µM with HLA-A*01:01 (setting [1]); 0.0647 µM in the experiment with HLA-A*29:02 (setting [1]); 0.0117 µM with HLA-A*30:02 (setting [1]); at least 22.1 µM in the experiment with HLA-A*26:01 (setting [1]).

As for QYSQPQQPI, the equilibrium dissociation constant (Kd) is 16.1 µM in the experiment with HLA-A*23:01 (setting [4]); 2.62 µM with HLA-A*24:02 (setting [4]); at least 56.4 µM with HLA-A*01:01 (setting [4]); 0.407 µM with HLA-A*29:02 (setting [4]); 0.0933 µM in the experiment with HLA-A*30:02 (setting [4]); at least 77.9 µM with HLA-A*26:01 (setting [4]).

Usually IC50 stands for the concentration that gives 50% inhibition. Low readings indicate inhibition by little substance, high ones a need for much substance. With QFLFQLNDT, the half-inhibitory concentration (IC50) with HLA-A*02:01 (setting [5]) was found to be 10.8 µM.

In the experiment with HLA-A*02:01 (setting [6]), SGLLIVKTV displayed an IC50 of 2.29 µM.

In the case of VSVKMFDAY, the Kd with HLA-A*23:01 (setting [1]) stood at 10.5 µM; with HLA-A*24:02 (setting [1]) it was 10.3 µM; in the experiment with HLA-A*01:01 (setting [1]) it was 0.102 µM; in the experiment with HLA-A*29:02 (setting [1]) it was 0.0766 µM; in the experiment with HLA-A*30:02 (setting [1]) it was 0.639 µM; with HLA-A*26:01 (setting [1]), 11.5 µM.

In the case of CGDPSSFEY, the dissociation constant Kd in the experiment with HLA-A*23:01 (setting [7]) is at least 77.7 µM; with HLA-A*24:02 (setting [7]) it was at least 64.1 µM; in the experiment with HLA-A*01:01 (setting [7]) it was 0.0394 µM; with HLA-A*29:02 (setting [7]), 0.834 µM; with HLA-A*30:02 (setting [7]) it was 0.421 µM; with HLA-A*26:01 (setting [7]) it was at least 77.9 µM.

Take GIKCIKKGV: in the experiment with HLA-A*02:01 (source organism: Vaccinia virus), the IC50 is at least 102 µM.

In the experiment with HLA-A*02:01 (setting [6]), ATGFGTNET had a 50% inhibitory concentration (IC50) of at least 393 µM.

Turning to WIPYFGPAA, in the experiment with HLA-A*02:01 (setting [6]), the 50% inhibitory concentration (IC50) was found to be 0.894 µM.

With NMVYMPASW, the dissociation constant Kd with HLA-A*23:01 (setting [1]) is 0.706 µM; with HLA-A*24:02 (setting [1]), 4.02 µM; in the experiment with HLA-A*01:01 (setting [1]), at least 78.1 µM; in the experiment with HLA-A*29:02 (setting [1]), at least 25.1 µM; with HLA-A*30:02 (setting [1]) it was at least 96.8 µM; in the experiment with HLA-A*26:01 (setting [1]) it was at least 77.9 µM.

As for FRSGVPPKV, in the experiment with HLA-A*02:01 (setting [5]), the 50% inhibitory concentration (IC50) is at least 169 µM.

In the case of DMFLTSVINR, the dissociation constant Kd was 0.0102 µM in the experiment with HLA-A*68:01; at least 42.9 µM with HLA-A*29:02 (source organism: Vaccinia virus WR); 0.00658 µM in the experiment with HLA-A*31:01; 0.0023 µM in the experiment with HLA-A*33:01; 0.965 µM with HLA-A*03:01; 2.42 µM with HLA-A*11:01.

Turning to YTGNYQCGHY, the Kd with HLA-A*23:01 (setting [1]) was at least 70 µM; with HLA-A*24:02 (setting [1]), at least 70.3 µM; with HLA-A*01:01 (setting [1]), 0.00338 µM; with HLA-A*29:02 (setting [1]), 0.0225 µM; with HLA-A*30:02 (setting [1]), 0.00115 µM; with HLA-A*26:01 (setting [1]), 0.128 µM.

Regarding LTQDLFLPFY, the Kd stood at 18 µM with HLA-A*23:01 (setting [1]); 10.5 µM with HLA-A*24:02 (setting [1]); 0.00838 µM in the experiment with HLA-A*01:01 (setting [1]); 0.0535 µM with HLA-A*29:02 (setting [1]); 0.00226 µM with HLA-A*30:02 (setting [1]); 0.481 µM with HLA-A*26:01 (setting [1]).

In the case of QFEEIRNLAL, the equilibrium dissociation constant (Kd) was at least 21.7 µM in the experiment with HLA-A*23:01 (setting [4]); 6.85 µM with HLA-A*24:02 (setting [4]); at least 70.4 µM in the experiment with HLA-A*01:01 (setting [4]); 3.88 µM with HLA-A*29:02 (setting [4]); 7.39 µM with HLA-A*30:02 (setting [4]); at least 69.7 µM in the experiment with HLA-A*26:01 (setting [4]).
